According to publication PMC8484898 (Bioactive Materials, 2021):

Target: T1, human receptor activator of nuclear factor-κB (RANK) (human, UniProt Q9Y6Q6 30-212)
T1 sequence (looked up): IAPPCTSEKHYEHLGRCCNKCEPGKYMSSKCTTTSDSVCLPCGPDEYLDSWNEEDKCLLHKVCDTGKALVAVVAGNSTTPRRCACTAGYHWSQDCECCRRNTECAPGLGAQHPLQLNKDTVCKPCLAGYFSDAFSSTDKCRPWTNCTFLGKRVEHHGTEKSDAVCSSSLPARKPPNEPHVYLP
Experiment: SPR

binding result: binds
B1: human receptor activator of nuclear factor-κB ligand (RANKL) (ligand, UniProt O14788 140-317, looked up)
chain: IRAEKAMVDGSWLDLAKRSKLEAQPFAHLTINATDIPSGSHKVSLSSWYHDRGWAKISNMTFSNGKLIVNQDGFYYLYANICFRHHETSGDLATEYLQLMVYVTKTSIKIPSSHTLMKGGSTKYWSGNSEFHFYSINVGGFFKLRSGEEISIEVSNPSLLDPDQDATYFGAFKVRDID
